In patent US20250145711A1 (Janssen / Centocor, published 2025) one finds EC50 and Kd data, which are given here for eleven molecules.

Sequences and labels used below:
B1: PS3B926 (bispecific antibody, human IgG1, kappa, lambda, L234A L235A)
heavy 1: EVQLVESGGGLVKPGGSLRLSCAASGFTFSRYNMNWVRQAPGKGLEWVSSISTSSNYIYYADSVKGRFTFSRDNAKNSLDLQMSGLRAEDTAIYYCTRGWGPFDYWGQGTLVTVSSASTKGPSVFPLAPSSKSTSGGTAALGCLVKDYFPEPVTVSWNSGALTSGVHTFPAVLQSSGLYSLSSVVTVPSSSLGTQTYICNVNHKPSNTKVDKKVEPKSCDKTHTCPPCPAPEAAGGPSVFLFPPKPKDTLMISRTPEVTCVVVSVSHEDPEVKFNWYVDGVEVHNAKTKPREEQYNSTYRVVSVLTVLHQDWLNGKEYKCKVSNKALPAPIEKTISKAKGQPREPQVYTLPPSREEMTKNQVSLTCLVKGFYPSDIAVEWESNGQPENNYKTTPPVLDSDGSFLLYSKLTVDKSRWQQGNVFSCSVMHEALHNHYTQKSLSLSP
light 1: DIQMTQSPSSLSASVGDRVTITCRARQSIGTAIHWYQQKPGKAPKLLIKYASESISGVPSRFSGSGSGTDFTLTISSLQPEDFATYYCQQSGSWPYTFGQGTKLEIKRTVAAPSVFIFPPSDEQLKSGTASVVCLLNNFYPREAKVQWKVDNALQSGNSQESVTEQDSKDSTYSLSSTLTLSKADYEKHKVYACEVTHQGLSSPVTKSFNRGEC
heavy 2: not shown
light 2: not shown
notes: FAB-A: CD3B2183 (CD3W245); FAB-B: PSMB891
B2: PS3B928 (bispecific antibody, human IgG1, kappa, lambda, L234A L235A)
heavy 1: B1 heavy 1
light 1: B1 light 1
heavy 2: not shown
light 2: not shown
notes: FAB-A: CD3B2183 (CD3W245); FAB-B: PSMB892
B3: PS3B912 (bispecific antibody, human IgG1, lambda, L234A L235A)
heavy 1: QVQLQQSGPRLVRPSQTLSLTCAISGDSVFNNNAAWSWIRQSPSRGLEWLGRTYYRSKWLYDYAVSVKSRITVNPDTSRNQFTLQLNSVTPEDTALYYCARGYSSSFDYWGQGTLVTVSSASTKGPSVFPLAPSSKSTSGGTAALGCLVKDYFPEPVTVSWNSGALTSGVHTFPAVLQSSGLYSLSSVVTVPSSSLGTQTYICNVNHKPSNTKVDKKVEPKSCDKTHTCPPCPAPEAAGGPSVFLFPPKPKDTLMISRTPEVTCVVVSVSHEDPEVKFNWYVDGVEVHNAKTKPREEQYNSTYRVVSVLTVLHQDWLNGKEYKCKVSNKALPAPIEKTISKAKGQPREPQVYTLPPSREEMTKNQVSLTCLVKGFYPSDIAVEWESNGQPENNYKTTPPVLDSDGSFLLYSKLTVDKSRWQQGNVFSCSVMHEALHNHYTQKSLSLSPG
light 1: QSALTQPASVSGSPGQSITISCTGTSSNIGTYKFVSWYQQHPDKAPKVLLYEVSKRPSGVSSRFSGSKSGNTASLTISGLQAEDQADYHCVSYAGSGTLLFGGGTKLTVLGQPKAAPSVTLFPPSSEELQANKATLVCLISDFYPGAVTVAWKADSSPVKAGVETTTPSKQSNNKYAASSYLSLTPEQWKSHRSYSCQVTHEGSTVEKTVAPTECS
heavy 2: EVQLVESGGGLVQPGGSLRLSCTASGFIFSSYAMSWVRQAPGKGLEWVSAISGGYGAPYYADTVKGRFTISRDNSKNTLYLQMNSLRAEDTAVYYCAKDGVGATPYYFDDWGQGILVTVSSASTKGPSVFPLAPSSKSTSGGTAALGCLVKDYFPEPVTVSWNSGALTSGVHTFPAVLQSSGLYSLSSVVTVPSSSLGTQTYICNVNHKPSNTKVDKKVEPKSCDKTHTCPPCPAPEAAGGPSVFLFPPKPKDTLMISRTPEVTCVVVSVSHEDPEVKFNWYVDGVEVHNAKTKPREEQYNSTYRVVSVLTVLHQDWLNGKEYKCKVSNKALPAPIEKTISKAKGQPREPQVYTLPPSREEMTKNQVSLTCLVKGFYPSDIAVEWESNGQPENNYKTTPPVLDSDGSFFLYSRLTVDKSRWQQGNVFSCSVMHEALHNHYTQKSLSLSPG
light 2: QSVLTQPPSVSAAPGQKVTISCSGSSSNIGNNYVSWYQQLPGTAPKLLIFDNNKRPSGIPDRFSGSKSGTSATLGITGLQTGDEADYYCGTWDSSLSAYVFGTGTKVTVLGQPKAAPSVTLFPPSSEELQANKATLVCLISDFYPGAVTVAWKADSSPVKAGVETTTPSKQSNNKYAASSYLSLTPEQWKSHRSYSCQVTHEGSTVEKTVAPTECS
notes: FAB-A: CD3B891 (CD3B376 - K477); FAB-B: PSMB899
B4: PS3B932 (bispecific antibody, human IgG1, kappa, lambda, L234A L235A)
heavy 1: B1 heavy 1
light 1: B1 light 1
heavy 2: B3 heavy 2 with T23A, I28T, Y55I, A57S, P58T, T63S, Y80W, D110Y, I115T
light 2: B3 light 2 with F50Y
notes: FAB-A: CD3B2183 (CD3W245); FAB-B: PSMB895
B5: PS3B921 (bispecific antibody, human IgG1, lambda, L234A L235A)
heavy 1: B3 heavy 1
light 1: B3 light 1
heavy 2: B3 heavy 2 with T23A, I28T, Y55I, A57S, P58T, T63S, Y80W, D110Y, I115T
light 2: B3 light 2 with N31I, F50Y, Y99V, T103G, V107L
notes: FAB-A: CD3B891 (CD3B376 - K477); FAB-B: PSMB896
B6: PS3B925 (bispecific antibody, human IgG1, kappa, lambda, L234A L235A)
heavy 1: B1 heavy 1
light 1: B1 light 1
heavy 2: B3 heavy 2
light 2: B3 light 2
notes: FAB-A: CD3B2183 (CD3W245); FAB-B: PSMB899
B7: PS3B935 (bispecific antibody, human IgG1, kappa, lambda, L234A L235A)
heavy 1: B1 heavy 1
light 1: B1 light 1
heavy 2: B3 heavy 2 with T23A, I28T, Y55S, A57S, P58T, T63S, T91S, D110Y, I115T
light 2: B3 light 2 with N31I, F50Y, Y99V, T103G, V107L
notes: FAB-A: CD3B2183 (CD3W245); FAB-B: PSMB898
B8: PS3B933 (bispecific antibody, human IgG1, kappa, lambda, L234A L235A)
heavy 1: B1 heavy 1
light 1: B1 light 1
heavy 2: B3 heavy 2 with T23A, I28T, Y55S, A57S, P58T, T63S, T91S, D110Y, I115T
light 2: B3 light 2 with F50Y
notes: FAB-A: CD3B2183 (CD3W245); FAB-B: PSMB897
B9: PS3B920 (bispecific antibody, human IgG1, lambda, L234A L235A)
heavy 1: B3 heavy 1
light 1: B3 light 1
heavy 2: B3 heavy 2 with T23A, I28T, Y55S, A57S, P58T, T63S, T91S, D110Y, I115T
light 2: B3 light 2 with F50Y
notes: FAB-A: CD3B891 (CD3B376 - K477); FAB-B: PSMB897
B10: PS3B922 (bispecific antibody, human IgG1, lambda, L234A L235A)
heavy 1: B3 heavy 1
light 1: B3 light 1
heavy 2: B3 heavy 2 with T23A, I28T, Y55S, A57S, P58T, T63S, T91S, D110Y, I115T
light 2: B3 light 2 with N31I, F50Y, Y99V, T103G, V107L
notes: FAB-A: CD3B891 (CD3B376 - K477); FAB-B: PSMB898
B11: PS3B934 (bispecific antibody, human IgG1, kappa, lambda, L234A L235A)
heavy 1: B1 heavy 1
light 1: B1 light 1
heavy 2: B3 heavy 2 with T23A, I28T, Y55I, A57S, P58T, T63S, Y80W, D110Y, I115T
light 2: B3 light 2 with N31I, F50Y, Y99V, T103G, V107L
notes: FAB-A: CD3B2183 (CD3W245); FAB-B: PSMB896

Changes are numbered by the printed parent chain. Bounds are passed on as bounds.

For the first assay, the target named is T1, human PSMA on prostate cancer cell lines (22RV1, C4-2B) (human, UniProt Q04609 1-750).
T1 construct: also called PSMA-expressing cell lines
T1 sequence (Q04609 whole entry): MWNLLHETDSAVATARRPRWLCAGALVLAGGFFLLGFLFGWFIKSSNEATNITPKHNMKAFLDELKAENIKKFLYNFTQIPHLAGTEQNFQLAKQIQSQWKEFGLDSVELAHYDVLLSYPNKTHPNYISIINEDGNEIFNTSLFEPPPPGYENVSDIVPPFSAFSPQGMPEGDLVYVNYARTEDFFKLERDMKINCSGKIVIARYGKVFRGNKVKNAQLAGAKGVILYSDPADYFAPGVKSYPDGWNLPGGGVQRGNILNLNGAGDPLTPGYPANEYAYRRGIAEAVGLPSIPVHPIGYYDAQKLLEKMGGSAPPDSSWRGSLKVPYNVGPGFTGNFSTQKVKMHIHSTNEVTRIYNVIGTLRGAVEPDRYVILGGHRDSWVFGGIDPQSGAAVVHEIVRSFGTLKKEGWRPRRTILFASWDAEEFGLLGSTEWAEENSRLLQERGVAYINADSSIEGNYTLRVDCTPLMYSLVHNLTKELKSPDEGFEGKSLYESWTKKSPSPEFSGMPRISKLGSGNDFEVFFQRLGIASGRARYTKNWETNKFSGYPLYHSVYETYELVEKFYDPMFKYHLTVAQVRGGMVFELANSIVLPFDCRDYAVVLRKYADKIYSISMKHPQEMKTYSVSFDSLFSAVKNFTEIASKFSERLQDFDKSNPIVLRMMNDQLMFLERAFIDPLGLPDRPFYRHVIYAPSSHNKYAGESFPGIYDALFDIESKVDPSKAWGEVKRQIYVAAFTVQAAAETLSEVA
Nature of the assay: flow cytometry on 22RV1 cells. Here is the method: (§1) 22RV1 and C4-2B cells were plated at 50,000 cells per well in 50 μl of assay medium (RPMI, 10% HI FBS) in V bottom plates. Serial dilutions of antibodies were prepared in assay medium with 50 μl of antibody dilutions added to the plates containing cells. The plates were incubated for 60 min at 37° C. at which time 100 μl of staining buffer (Becton Dickinson Cat #554657) was added to all wells of each plate. The plates were centrifuged at 300×G for 5 minutes and the medium was removed from the wells. 200 μl of staining buffer was added to all wells of each plate. The plates were centrifuged at 300× G for 5 minutes and the medium was removed from the wells. 50 μl of 2 μg/ml AlexaFluor647-labeled goat anti-human Fc was added to all wells of the plates and the plates were incubated for 30 minutes at 4° C. 150 μl of staining buffer was added to all wells of each plate. The plates were centrifuged at 300× G for 5 minutes and the medium was removed from the wells.
In turn, B1 gave a concentration for a half-maximal effect (EC50) of 2.9 nM.
As for B2, the concentration for a half-maximal effect (EC50) is 60 nM.
In turn, B3 gave an EC50 of 54 nM.
As to B4, a half-maximal response (EC50) required 48.7 nM.
The molecule B5 registered an EC50 of 4.03 nM.
In turn, B6 registered an EC50 of 21.2 nM.
B7 showed an EC50 of 39.5 nM.
On to B8, for which the EC50 came out at 60 nM.
In turn, B9 had a half-maximal effective concentration (EC50) of 60 nM.
Consider B10, for which the EC50 was determined as 34.7 nM.
Regarding B11, the EC50 amounted to 4.96 nM.

The next assay addresses T1, human PSMA on prostate cancer cell …. Nature of the assay: flow cytometry on C4-2B cells. Here is the method: as §1
For orientation: Flow cytometry measures light scatter and fluorescence of single cells or particles in a stream.
Molecule B1 returned an EC50 of 4.55 nM.
B2 displayed an EC50 of 60 nM.
Take B3: the EC50 amounted to 36.8 nM.
Still for that read-out and setting: then B4, with 60 nM; and B5, with 6.44 nM.
B6 gave an EC50 of 11.7 nM.
B7 came in with an EC50 of 8.22 nM.
Molecule B8 displayed an EC50 of 60 nM.
Still for that read-out and setting: to B9 belongs 60 nM; to B10, 44.1 nM; to B11, 11 nM.

For the next assay, the target named is T2, recombinant human PSMA (human, UniProt Q04609 44-750).
T2 construct: also called hu PSMA; prostate-specific membrane antigen
T2 sequence (Q04609 44-750 limits assumed): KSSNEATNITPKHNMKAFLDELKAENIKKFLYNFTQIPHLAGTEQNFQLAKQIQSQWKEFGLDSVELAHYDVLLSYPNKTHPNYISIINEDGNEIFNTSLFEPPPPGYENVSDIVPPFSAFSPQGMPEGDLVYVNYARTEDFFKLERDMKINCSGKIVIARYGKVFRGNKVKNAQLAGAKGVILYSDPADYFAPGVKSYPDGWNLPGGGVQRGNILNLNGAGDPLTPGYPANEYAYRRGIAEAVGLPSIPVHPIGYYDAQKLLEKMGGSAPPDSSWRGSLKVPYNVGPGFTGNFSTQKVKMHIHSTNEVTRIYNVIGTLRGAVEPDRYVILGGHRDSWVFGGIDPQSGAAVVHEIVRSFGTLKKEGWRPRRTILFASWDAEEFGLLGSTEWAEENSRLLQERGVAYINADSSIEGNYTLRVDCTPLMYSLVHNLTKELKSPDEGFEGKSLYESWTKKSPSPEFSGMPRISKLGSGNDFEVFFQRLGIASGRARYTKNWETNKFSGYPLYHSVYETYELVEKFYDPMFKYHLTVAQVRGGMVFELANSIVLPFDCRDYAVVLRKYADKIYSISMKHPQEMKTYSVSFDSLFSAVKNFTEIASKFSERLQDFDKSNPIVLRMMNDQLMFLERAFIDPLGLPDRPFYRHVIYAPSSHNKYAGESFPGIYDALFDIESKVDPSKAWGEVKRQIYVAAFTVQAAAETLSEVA
Nature of the assay: SPR (Biacore 8K), antibody captured on anti-Fc, PSMA in solution. Here is the method: The binding affinity of anti-PSMA to the recombinant human, cynomolgus or mouse PSMA was determined by surface plasmon resonance (SPR) using a Biacore 8K instrument\. […] The association and dissociation were monitored for 3 and 15 minutes, respectively, using a flow rate of 50 μL/min. Raw binding data was referenced by subtracting the analyte binding signals from blanks and analyzed using a 1:1 Langmuir binding model using the Biacore Insight evaluation software to obtain the kinetics which were used to calculate the binding affinity. The anti-PSMA were captured using an anti-human Fc antibody and the antigens were injected in solution.
(In general: In SPR one partner is held on a chip, and binding of the other changes the refractive index at the surface.)
Turning to B1, the Kd was at most 0.253 nM.
With B2, the Kd was determined as 2.37 nM.
For B3, the Kd came to 0.174 nM.
Turning to B4, the Kd was 0.787 nM.
As for B5, the Kd is at most 0.0864 nM.
With B6, the Kd stood at 0.169 nM.
Turning to B7, the Kd was found to be 0.454 nM.
For the molecule B8, the Kd is 1.44 nM.
B9: the Kd is 1.35 nM.
As to B10, the Kd was determined as 0.41 nM.
Same read-out and setting: then B11, with at most 0.0873 nM.

Usually EC50 stands for the concentration at which the effect is half-maximal. High values mean weaker potency, low ones greater potency. Usually Kd stands for the equilibrium constant for the complex coming apart.
